Values joined by “and” are separate entries in the source; they are usually repeats but may differ in a detail not shown here. Identical values can stand only once. Each block holds one binder with its values, some of them ahead of it.
Columns and labels:
[1] = target: the molecule itself; assay: SEC; purified HSP22rec (100 µg) at 20 °C; Superdex 200 10/300GL, 0.25 mL/min, 20 mM Tris pH 7.4, 1 mM EDTA, 150 mM NaCl; masses from a calibration curve with standard proteins
[2] = target: T1, rhodanese from bovine liver (bovine, UniProt P00586 1-297); assay: co-sedimentation; heat aggregation assay with purified proteins: 8 to 25 µg of proteins in 50 µL MOPS 50 mM pH 7.5, DTT 1 mM, EDTA 1 mM, heated 20 min at 50 °C, 15 min on ice, centrifuged 30 min at 20,000 g; supernatants and pellets by SDS-PAGE; 1:1 mass ratio or molar ratios up to 9:1; conditions: both partners purified
T1 construct: rhodanese (thiosulfate sulfurtransferase) from bovine liver; called a monomeric enzyme of 33 kDa; In the assays it is heat denatured (50 °C) and aggregating; source: bought: Merck KGaA (rhodanese from bovine liver II)
T1 sequence (looked up): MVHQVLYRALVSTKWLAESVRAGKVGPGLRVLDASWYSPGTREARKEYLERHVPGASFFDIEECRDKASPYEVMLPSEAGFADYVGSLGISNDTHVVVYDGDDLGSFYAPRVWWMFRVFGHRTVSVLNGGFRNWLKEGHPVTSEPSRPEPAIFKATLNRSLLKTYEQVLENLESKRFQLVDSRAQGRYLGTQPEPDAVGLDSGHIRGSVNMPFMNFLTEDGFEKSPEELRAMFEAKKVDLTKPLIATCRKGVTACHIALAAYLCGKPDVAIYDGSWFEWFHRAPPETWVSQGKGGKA

[3] = target: the molecule itself; assay: SEC; pea seed mitochondrial soluble proteins (7 mg) separated at 20 °C; fractions analysed by Western blot with the anti-HSP22 Cterm antibody

binding result [2]: binds
B1: recombinant HSP22 (HSP22rec), mature mitochondrial small heat shock protein HSP22 from pea (natural protein, UniProt P46254 32-202, looked up)
chain: FNTNAMRQYDQHSDDRNVDVYRHSFPRTRRDDLLLSDVFDPFSPPRSLSQVLNMVDLLTDNPVLSAASRRGWDARETEDALFLRLDMPGLGKEDVKISVEQNTLTIKGEEGAKESEEKEKSGRRFSSRIDLPEKLYKIDVIKAEMKNGVLKVTVPKMKEEERNNVINVKVD
notes: mature HSP22 of pea, amplified from a cDNA encoding the HSP22 precursor (UniProtKB P46254); 19.5 kDa and 170 residues stated; Cloned by NdeI/BamHI into pET3a, so an added initiator methionine is likely (surmise); No tag is mentioned; source: E. coli B834 pLys (pET3a, pET-HSP22), purified (anion exchange HitrapQ, two SEC steps on Superdex 200); also unpurified in soluble extract of the …
stoichiometry N [1]: 20 mer and 12 mer and 8 mer

B2: native HSP22 of pea seed mitochondria (natural protein, UniProt P46254 32-202, looked up)
chain: B1 chain
notes: mitochondrial small heat shock protein HSP22 of pea, native protein in the soluble (matrix) extract of mitochondria from 22 h imbibed pea seeds; Detected by Western blot with anti-HSP22 peptide antibodies; source: endogenous, soluble protein extract of pea seed mitochondria
stoichiometry N [3]: 2 mer and 3 mer

Source: paper PMC6981728, “The Mitochondrial Small Heat Shock Protein HSP22 from Pea is a Thermosoluble Chaperone Prone to Co-Precipitate with Unfolding Client Proteins” (International Journal of Molecular Sciences, 2019)
